Patent US20240336661A1, “PEPTIDES DERIVED FROM RUMINOCOCCUS TORQUES” (University of Copenhagen, priority 2021, published 2024)

B1: RUCILP1: 88 amino acid FNIII domain polypeptide of RUMTOR_00181 from Ruminococcus torques (protein)
chain: APVDVKVSEVTETSAKVSWKNAADGKEAAGYNVYVDGTKVNEELIAETTYNVSSLKDGTTYSVEVTAVDAAGEESAKSEKVEFTTVKK
modifications: Ruminococcus torques
notes: 88 amino acid FNIII domain polypeptide of RUMTOR_00181 from Ruminococcus torques
B2: RUCILP2: 87 amino acid irisin-like polypeptide cleaved from the Ruminococcus torques FNDC5-like protein RUMTOR_00181; recombinant, 6-His-tagged from E. coli (protein)
chain: APVDVKVSEITETSAKASWKNAADGKEAAGYNVYVDGVKLNKELLTEASCGLTNLKAETTYFVEVTAVDAAGNESVKSEKVTFKTLK
modifications: 6-His tag; Ruminococcus torques
notes: 87 amino acid irisin-like polypeptide cleaved from the Ruminococcus torques FNDC5-like protein RUMTOR_00181; recombinant, 6-His-tagged from E. coli

Experiments:
murine C2C12 myoblasts = test: Myotube formation and myogenesis gene expression in C2C12 myoblasts; format: cell-based, mouse
Method: FIG. 12. […] The C2C12 myotubes were treated with indicated doses of RUCILP2 overnight and myotube images were collected at magnification, ×10.
FIG. 28. […] White preadipocytes from human visceral fat (C-12732, PromoCell) were cultured until 80% confluent and switched into differentiation media (with 0.3 ml/ml of fetal calf serum (FCS), 8 ug/ml of d-biotin, 0.5ug/ml of insulin, 400 ng/ml of dexamethasone) in the presence of 15 nM of 21-AABP2. The differentiation process to mature adipocytes was completed after 14 days. Cells were harvested after 14 days of differentiation and the indicated genes were quantified by q-PCR. Inguinal fat tissues from 6-week-old wild-type C57BL/6J female mice were dissected and washed with PBS, minced and digested for 1 hour at 37° C. in PBS containing 10 mM CaCl2, 2.4 U/ml dispase II (Roche) and 10 mg/ml collagenase D (Roche). After adding warm DMEM/F12 (1:1) with 10% FCS, digested tissue was filtered through a […] cell strainer and centrifuged at 600×g for 10 minutes. Pellet was resuspended by 40 ml DMEM/F12 (1:1) with 10% FCS and filtered through a […] cell strainer followed by centrifugation at 600×g for 10 minutes. Pelleted inguinal stromal vascular cells were grown to confluence and split onto 12-well plates. The cells were induced to differentiate by treatment with […], 0.5 mM isobutyl methyl xanthine for 2 days. After that, cells were maintained in […] for 4 days with medium change every other day. The cells were treated with 15 nM of 21-AABP2 every other day during 6 days of differentiation. Cells were harvested after 6 days of differentiation and thermogenesis gene were quantified by q-PCR. C2C12 myoblasts (CRL-1772, ATCC) were cultured until 80% confluent and switched into differentiation media (with 2% horse serum). The treatment with 21-AABP2 started from the second day of differentiation. Cells were harvested after 4 days of differentiation and expression of myogenesis genes were quantified by q-PCR. Data are presented as mean+/−SEM of one representative experiment done in biological triplicates. Statistical significance was determined by unpaired two-tailed Student's t test, *, p<0.05
FIG. 29. […] Representative images of myoblasts (CRL-1772, ATCC) at 24h of differentiation in the presence of phosphate buffered saline (PBS, blank) or 21-AABP2 (15 nM). Presented images were from one representative experiment done in biological triplicates.
(§1) C2C12 cells were seeded on 12-well plates under DMEM/F-12 medium (Dulbecco's Modified Eagle Medium/Nutrient Mixture F-12, Fisher Scientific, #11524436), supplemented with 10% FBS (Fetal Bovine Serum, Fisher Scientific, #11550356) and 1% Penicillin-Streptomycin (Fisher Scientific, #11548876). Cell cultures were maintained in a humidified chamber with 5% CO2 at 37° C., and culture media were changed every 2-3 days.
At approximately 80% confluence, 10% fetal bovine serum was replaced with 2% horse serum to induce C2C12 myoblast cells to differentiate into myotubes. Twenty-four hours later (day 1 of the differentiation), the cells were treated with recombinant RUCILP2 or commercial recombinant irisin (Sigma, #SRP8039-10UG and Phoenix pharmaceuticals, #067-29A) or saline. For integrin inhibitor treatment, cells were treated with 10 μM of CycloRGDyK (Selleckchem, #S7844) for 10 minutes and washed with PBS before treated with recombinant RUCILP2 or commercial recombinant irisin or saline. At day three, the cells were refreshed with the same media as day one. After treatments for six hours on day 3, C2C12 cells were harvested for qRT-PCR analysis.
C2C12 myoblasts were cultured until 80% confluent and switched into differentiation media (with 2% horse serum). The treatment with 21-AABP2 started from the second day of differentiation. Representative images of the formed myotubes at 24h of differentiation in the presence of PBS (blank) or 21-AABP2 (15 nM) were captured. […]

HepG2 cell line = test: Gluconeogenesis gene expression in HepG2 cells; format: cell-based; conditions: HepG2, q-PCR
Method: FIG. 13. […] The cells were treated with various doses of RUCILP2, and cells were collected for q-PCR quantification on indicated genes. For integrin inhibitor treatment, cells were treated with 10 uM of cRGDyK (Selleckchem, #S7844) for 10 minutes and washed with PBS before treated with RUCILP2. Data are presented as mean+/−SEM of one representative experiment done in technical triplicate. Statistical significance was determined by unpaired two-tailed Student's t-test. *, p<0.05 vs 0 nM RUCILP2.
as §1, with “HepG2” for “C2C12”, “C02” for “CO2”
At 70% confluence, to induce insulin resistance, HepG2 cells were incubated with 18 mM glucosamine (GlcN) for 18 h in serum-free medium, followed by treatment with recombinant RUCILP2 or commercial recombinant irisin (Sigma, #SRP8039-10UG and Phoenix pharmaceuticals, #067-29A), or saline for 24 h. […]

Molecule	myotube formation markers Sox8 and Stat3 (murine C2C12 myoblasts; C2C12 myoblasts, dose-response)	expression of genes involved in gluconeogenesis (HepG2 cell line)	myotube formation (murine C2C12 myoblasts; C2C12, treated overnight)	expression of Heyl (murine C2C12 myoblasts; C2C12 myoblasts, dose-response)
B1	less dose-dependent	–	–	–
B2	less dose-dependent	reduces expression	induces myotube formation	more clear dose-dependence response
